Data set [1] deals with the molecule itself. Kind of data set: AUC; sedimentation velocity, 42,000 rpm, 20 °C, 20 mM Tris-HCl pH 7.5, 150 mM NaCl, 0.5 mM TCEP; c(s) distribution (SEDFIT); oligomeric state of the protein alone.
For data set [2], the target named is T1, cytosolic domain of human Fis1 (Fis1_ΔTM, residues 1−123) (human, UniProt Q9Y3D6 1-123).
T1 construct: mitochondrial fission protein 1 (Fis1), human, cytosolic domain with the C-terminal TM region truncated, residues 1-123; pQlinkH vector: N-terminal polyhistidine tag followed by a TEV site; also called Fis1_ΔTM WT; Fis1_WT; source: E. coli Rosetta2(DE3), purified (Ni-NTA, SEC)
Kind of data set: SPR; Fis1_ΔTM WT or mutants immobilised by amine coupling; Bap31 constructs flowed at 30 μl/min; 25 °C; 20 mM HEPES pH 7.5, 100 mM NaCl, 0.005% Tween 20; BSA reference subtracted; equilibrium analysis. Particulars: both partners purified.

T1 sequence (Q9Y3D6 1-123, stated change not applied): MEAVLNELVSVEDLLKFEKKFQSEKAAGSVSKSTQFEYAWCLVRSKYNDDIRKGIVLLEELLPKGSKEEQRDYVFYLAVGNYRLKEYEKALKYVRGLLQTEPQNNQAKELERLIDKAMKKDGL

B1: Bap31 coiled-coil 2 (Bap31_CC2, residues 168−246) (domain or fragment, human, UniProt P51572 168-246, looked up)
chain: LDVGNAEVKLEEENRSLKADLQKLKDELASTKQKLEKAENQVLAMRKQSEGLTKEYDRLLEEHAKLQAAVDGPMDKKEE
notes: B-cell receptor-associated protein 31 (Bap31), human, coiled-coil 2, residues 168-246; source: E. coli Rosetta2(DE3), purified (Ni-NTA, SEC)
As for B1, the “stoichiometry N” value in data set [1] was about 2.

B2: Bap31 coiled-coil 2 (Bap31_CC2, residues 168−246) WT (domain or fragment, human, UniProt P51572 168-246, looked up)
chain: LDVGNAEVKLEEENRSLKADLQKLKDELASTKQKLEKAENQVLAMRKQSEGLTKEYDRLLEEHAKLQAAVDGPMDKKEE
notes: B-cell receptor-associated protein 31 (Bap31), human, coiled-coil 2, residues 168-246; also called Bap31_CC2 WT; Bap31_WT; source: E. coli Rosetta2(DE3), purified (Ni-NTA, SEC)
Take B2: binding in data set [2] was put at a Kd of 58 µM.

B3: Bap31_vDED (residues 168−233 + SAAA) (domain or fragment, human)
chain: LDVGNAEVKLEEENRSLKADLQKLKDELASTKQKLEKAENQVLAMRKQSEGLTKEYDRLLEEHAKLSAAA
notes: B-cell receptor-associated protein 31 (Bap31), human, variant of the death effector domain, residues 168-233; also called Bap31_vDED+SAAA; Bap31_168-233+SAAA; source: E. coli Rosetta2(DE3), purified (Ni-NTA, SEC)
As to B3, the “stoichiometry N” value in data set [1] was about 2.

Source of the values: PMC12328794 (Communications Biology, 2025).
